This note sets out measurements from patent publication US20250388702A1 (Dana-Farber, published 2025).

Assay [1] addresses T1, KIR2DL5B (UniProt Q8NHK3 22-375, limits assumed).
T1 construct: whole, on cells
As to the kind of experiment: HEK293 cell microarray. The procedure:
(§1) Replicate microarray slides expressing a complete KIR family cDNA panel were fixed and blocked with buffer containing PBS/0.5% BSA and incubated for 1 hour at room temperature with individual KIR3DL3 mAb hybridoma supernatants at 1:5, 1:25 and 1:250 dilutions in PBS/0.1% BSA. Cell arrays were washed with PBS and incubated for 1 hour at room temperature in PBS/0.1% BSA containing AF647-conjugated goat anti-mouse IgG (H+L) (Life Technologies, A21235). Slides were washed with PBS, dried, and imaged for ZsGreen1 and AF647 fluorescence.
(§2) In Table 4, replicate microarray slides expressing the KIR family cDNA panel (as in FIG. 1A, FIG. 2B, and FIG. 2C) were fixed and blocked with buffer containing PBS/0.5% BSA and incubated for 1 hour at room temperature with individual KIR3DL3 mAb hybridoma supernatants at 1:5, 1:25 and 1:250 dilutions in PBS/0.1% BSA. Cell arrays were washed with PBS and incubated for 1 hour at room temperature in PBS/0.1% BSA containing AF647-conjugated goat anti-mouse IgG (H+L) (Life Technologies, A21235). Slides were washed with PBS, dried, and imaged for ZsGreen1 and AF647 fluorescence.

The target of assay [2] is T2, KIR2DL5A (UniProt Q8N109 22-375, limits assumed).
T2 construct: whole, on cells
Nature of the assay: HEK293 cell microarray. On the procedure:
as §1, §2

The target in assay [3] is T3, KIR2DL4 (UniProt Q99706 22-377, limits assumed).
T3 construct: whole, on cells
Nature of the assay: HEK293 cell microarray. On the procedure:
as §1, §2

Assay [4] has as its target T4, KIR2DL1 (UniProt P43626 22-348, limits assumed).
T4 construct: whole, on cells
Nature of the assay: HEK293 cell microarray. The procedure:
as §1, §2

The next assay has as its target T5, KIR2DS3 (UniProt Q14952 22-304, limits assumed).
T5 construct: whole, on cells
As to the kind of experiment: HEK293 cell microarray. The procedure: as §1, §2

For a further assay, the target named is T6, KIR2DS2 (UniProt P43631 22-304, limits assumed).
T6 construct: whole, on cells
Nature of the assay: HEK293 cell microarray. The procedure: as §1, §2

Assay [5] has as its target T7, KIR3DL1 (UniProt P43629 22-444, limits assumed).
T7 construct: whole, on cells
Nature of the assay: HEK293 cell microarray. On the procedure: as §1, §2

A further assay concerns the target T8, KIR2DL3 (UniProt P43628 22-341, limits assumed).
T8 construct: whole, on cells
As to the kind of experiment: HEK293 cell microarray. On the procedure:
as §1, §2

A further assay deals with T9, KIR2DS1 (UniProt Q14954 22-304, limits assumed).
T9 construct: whole, on cells
As to the kind of experiment: HEK293 cell microarray. The procedure: as §1, §2

Assay [6] concerns the target T10, KIR2DL2 (UniProt P43627 22-348, limits assumed).
T10 construct: whole, on cells
Nature of the assay: HEK293 cell microarray. The procedure:
as §1, §2

A further assay addresses T11, KIR2DS5 (UniProt Q14953 22-304, limits assumed).
T11 construct: whole, on cells
Nature of the assay: HEK293 cell microarray. On the procedure: as §1, §2

Another assay deals with T12, KIR3DS1 (UniProt Q14943 22-382, limits assumed).
T12 construct: whole, on cells
Nature of the assay: HEK293 cell microarray. The procedure: as §1, §2

Assay [7] concerns the target T13, KIR3DL2 (UniProt P43630 22-455, limits assumed).
T13 construct: whole, on cells
As to the kind of experiment: HEK293 cell microarray. The procedure:
as §1, §2

The target of assay [8] is T14, Human KIR3DL3 (human, UniProt Q8N743 26-410).
T14 construct: also called Killer cell immunoglobulin-like receptor 3DL3
Nature of the assay: flow cytometry; blockade of HHLA2-mIgG2a binding to KIR3DL3-transfected 300.19 cells. The procedure:
(§3) The indicated concentrations of KIR3DL3 mAbs were pre-incubated with KIR3DL3 transfected 300.19 cells for 30 minutes at 4° C. […] EC50 and IC50 analysis were conducted using GraphPad Prism®.
In general terms: In flow cytometry, cells or beads pass a laser one at a time.

The target of assay [9] is T14, Human KIR3DL3. As to the kind of experiment: cell-based or functional assay.
Assay [10] addresses T14, Human KIR3DL3. As to the kind of experiment: flow cytometry, KIR3DL3-transfected 300.19 cells.
The target in assay [11] is T14, Human KIR3DL3. Nature of the assay: flow cytometry; blockade of HHLA2-mIgG2a binding to KIR3DL3-transfected cells. The procedure: as §3
Assay [12] deals with T14, Human KIR3DL3. Nature of the assay: flow cytometry, KIR3DL3-transfected 300.19 cells. This is another data set of the same source.
For assay [13], the target named is T14, Human KIR3DL3. As to the kind of experiment: flow cytometry; blockade of HHLA2-mIgG2a binding to KIR3DL3-transfected 300.19 cells; Table 3; blockade of HHLA2-mouse IgG2a binding to KIR3DL3 transfected 300.19 cells, 4° C. On the procedure: as §3
For the next assay, the target named is T15, EGFR (human, UniProt P00533 25-1210).
T15 construct: whole, on cells; also called hEGFR
As to the kind of experiment: cell microarray on transfected HEK293 cells, HHLA2-mIgG2a probe, AF647 anti-mouse IgG detection. The procedure: (§4) A library of ˜5500 full length cDNA clones covering more than 3,500 different plasma membrane proteins was arrayed in duplicate across 13 microarray slides (“slide sets”). Human HEK293 cells were grown above the cDNA clones and reverse-transfected. An expression vector (pIRES-hEGFR-IRES-ZsGreen1) was spotted in quadruplicate on every slide and was used to ensure that a minimal threshold of transfection efficiency had been achieved or exceeded on every slide.
(§5) Two replicate slides were screened for each of the 13 slide sets. Fluorescent images were analyzed and quantitated (for transfection efficiency) using ImageQuant software (GE). A protein ‘hit’ was defined as duplicate spots showing a raised signal compared to background levels. This was achieved by visual inspection using the images gridded on the ImageQuant software.

Assay [14] addresses T1, KIR2DL5B. The description is as above. The procedure: as §4, §5
The target of assay [15] is T2, KIR2DL5A. The assay is described as above. The procedure:
as §4, §5

For assay [16], the target named is T3, KIR2DL4. The description is as above. On the procedure:
as §4, §5

Assay [17] has as its target T4, KIR2DL1. The assay is described as above. On the procedure:
as §4, §5

Assay [18] has as its target T7, KIR3DL1. Described as above. The procedure:
as §4, §5

For the next assay, the target named is T16, Human HHLA2 (human, UniProt Q9UM44 23-414).
T16 construct: also called B7-H7; B7-H5
T16 sequence: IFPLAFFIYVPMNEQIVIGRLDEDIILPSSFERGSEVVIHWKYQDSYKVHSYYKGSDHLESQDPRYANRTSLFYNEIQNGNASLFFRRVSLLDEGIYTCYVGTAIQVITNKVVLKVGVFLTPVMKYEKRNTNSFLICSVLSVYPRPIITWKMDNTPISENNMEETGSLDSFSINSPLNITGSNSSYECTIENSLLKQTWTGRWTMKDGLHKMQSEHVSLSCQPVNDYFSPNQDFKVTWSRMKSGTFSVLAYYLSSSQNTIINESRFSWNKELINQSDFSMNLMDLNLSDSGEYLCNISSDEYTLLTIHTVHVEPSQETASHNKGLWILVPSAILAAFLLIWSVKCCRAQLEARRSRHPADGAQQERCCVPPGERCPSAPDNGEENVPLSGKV
The assay is described as above. On the procedure:
as §4, §5

Assay [19] addresses T10, KIR2DL2. The description is as above. On the procedure:
as §4, §5

Assay [20] concerns the target T13, KIR3DL2. The assay is described as above. On the procedure:
as §4, §5

T10 sequence (P43627 22-348 limits assumed): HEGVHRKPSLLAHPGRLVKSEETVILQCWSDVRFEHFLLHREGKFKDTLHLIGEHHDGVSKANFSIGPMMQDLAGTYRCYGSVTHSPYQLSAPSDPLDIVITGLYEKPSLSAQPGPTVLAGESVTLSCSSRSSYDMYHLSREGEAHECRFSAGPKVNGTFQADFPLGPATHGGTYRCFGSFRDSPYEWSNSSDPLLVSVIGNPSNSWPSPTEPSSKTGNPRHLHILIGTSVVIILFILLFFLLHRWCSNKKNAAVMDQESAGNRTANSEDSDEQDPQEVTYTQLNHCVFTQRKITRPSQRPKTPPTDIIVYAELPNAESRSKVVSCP
T4 sequence (P43626 22-348 limits assumed): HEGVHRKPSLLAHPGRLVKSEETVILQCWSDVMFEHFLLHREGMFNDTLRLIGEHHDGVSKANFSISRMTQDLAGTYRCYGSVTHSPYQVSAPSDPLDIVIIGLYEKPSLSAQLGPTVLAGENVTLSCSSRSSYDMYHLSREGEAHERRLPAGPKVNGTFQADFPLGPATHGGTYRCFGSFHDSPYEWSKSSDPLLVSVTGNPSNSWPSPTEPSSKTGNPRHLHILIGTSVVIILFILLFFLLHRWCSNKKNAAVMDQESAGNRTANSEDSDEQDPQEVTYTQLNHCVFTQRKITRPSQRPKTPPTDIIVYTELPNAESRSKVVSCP
T1 sequence (Q8NHK3 22-375 limits assumed): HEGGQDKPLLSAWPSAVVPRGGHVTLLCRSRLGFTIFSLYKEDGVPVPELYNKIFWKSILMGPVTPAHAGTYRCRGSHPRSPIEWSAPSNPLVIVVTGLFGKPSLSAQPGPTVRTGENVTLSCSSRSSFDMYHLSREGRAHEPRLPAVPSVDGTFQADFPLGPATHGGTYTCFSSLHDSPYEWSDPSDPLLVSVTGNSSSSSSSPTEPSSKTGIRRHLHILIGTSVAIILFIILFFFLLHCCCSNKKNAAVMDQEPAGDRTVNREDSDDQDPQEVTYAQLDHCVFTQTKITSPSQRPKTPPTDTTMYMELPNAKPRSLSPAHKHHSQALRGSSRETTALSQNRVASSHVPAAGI
T14 sequence (Q8N743 26-410 H321N limits assumed): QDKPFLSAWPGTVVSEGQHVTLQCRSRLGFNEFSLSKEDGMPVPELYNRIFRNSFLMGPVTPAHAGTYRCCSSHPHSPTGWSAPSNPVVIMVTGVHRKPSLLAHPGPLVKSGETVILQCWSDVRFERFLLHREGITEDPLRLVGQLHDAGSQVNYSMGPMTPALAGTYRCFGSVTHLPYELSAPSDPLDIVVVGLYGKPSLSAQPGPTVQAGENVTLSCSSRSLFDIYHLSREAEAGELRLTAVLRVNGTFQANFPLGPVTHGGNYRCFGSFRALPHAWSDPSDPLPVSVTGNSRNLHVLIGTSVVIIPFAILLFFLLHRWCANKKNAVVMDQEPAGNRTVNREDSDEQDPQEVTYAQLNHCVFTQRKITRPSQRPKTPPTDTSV
T2 sequence (Q8N109 22-375 limits assumed): as the sequence (Q8NHK3 22-375 limits assumed) above, with D152N, S174G counted along it
T13 sequence (P43630 22-455 limits assumed): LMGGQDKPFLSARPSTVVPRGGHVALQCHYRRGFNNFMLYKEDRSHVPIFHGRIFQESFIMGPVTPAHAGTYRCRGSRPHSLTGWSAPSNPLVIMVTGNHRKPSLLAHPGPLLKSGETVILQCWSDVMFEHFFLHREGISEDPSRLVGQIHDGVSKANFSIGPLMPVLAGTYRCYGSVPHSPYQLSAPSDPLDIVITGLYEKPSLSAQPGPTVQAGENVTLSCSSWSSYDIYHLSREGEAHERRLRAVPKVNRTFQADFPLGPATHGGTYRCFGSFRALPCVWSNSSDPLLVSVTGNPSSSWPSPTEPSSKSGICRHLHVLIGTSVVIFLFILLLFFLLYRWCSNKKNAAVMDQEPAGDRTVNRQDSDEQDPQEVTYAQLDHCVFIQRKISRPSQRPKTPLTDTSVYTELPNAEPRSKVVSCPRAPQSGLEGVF
T7 sequence (P43629 22-444 limits assumed): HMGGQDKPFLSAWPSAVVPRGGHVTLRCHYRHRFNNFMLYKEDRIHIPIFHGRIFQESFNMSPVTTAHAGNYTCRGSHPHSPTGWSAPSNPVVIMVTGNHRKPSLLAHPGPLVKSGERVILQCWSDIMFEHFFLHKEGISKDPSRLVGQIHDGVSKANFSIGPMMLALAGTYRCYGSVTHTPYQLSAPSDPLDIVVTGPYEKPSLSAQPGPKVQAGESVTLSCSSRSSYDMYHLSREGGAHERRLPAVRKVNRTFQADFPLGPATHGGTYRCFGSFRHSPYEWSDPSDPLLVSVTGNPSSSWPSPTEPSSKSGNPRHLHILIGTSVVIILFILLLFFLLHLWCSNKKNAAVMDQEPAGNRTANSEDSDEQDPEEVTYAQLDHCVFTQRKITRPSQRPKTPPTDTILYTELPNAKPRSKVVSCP
T3 sequence (Q99706 22-377 limits assumed): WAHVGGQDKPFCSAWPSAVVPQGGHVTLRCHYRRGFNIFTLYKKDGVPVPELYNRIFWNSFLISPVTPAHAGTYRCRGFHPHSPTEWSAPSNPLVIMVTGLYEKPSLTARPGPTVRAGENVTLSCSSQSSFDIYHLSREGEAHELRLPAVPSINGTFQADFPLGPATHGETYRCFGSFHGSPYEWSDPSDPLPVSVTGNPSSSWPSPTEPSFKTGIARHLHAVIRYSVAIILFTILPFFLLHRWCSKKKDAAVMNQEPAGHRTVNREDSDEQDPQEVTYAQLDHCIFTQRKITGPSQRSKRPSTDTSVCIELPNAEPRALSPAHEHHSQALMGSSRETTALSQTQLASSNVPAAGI
T6 sequence (P43631 22-304 limits assumed): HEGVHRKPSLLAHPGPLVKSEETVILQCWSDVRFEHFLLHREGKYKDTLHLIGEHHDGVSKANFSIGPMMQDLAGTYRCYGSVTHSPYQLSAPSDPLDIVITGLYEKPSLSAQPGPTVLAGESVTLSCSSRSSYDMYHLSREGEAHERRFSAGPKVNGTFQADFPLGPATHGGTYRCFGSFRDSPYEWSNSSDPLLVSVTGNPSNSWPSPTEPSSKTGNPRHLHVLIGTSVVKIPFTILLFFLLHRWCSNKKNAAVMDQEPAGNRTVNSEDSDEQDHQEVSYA
T8 sequence (P43628 22-341 limits assumed): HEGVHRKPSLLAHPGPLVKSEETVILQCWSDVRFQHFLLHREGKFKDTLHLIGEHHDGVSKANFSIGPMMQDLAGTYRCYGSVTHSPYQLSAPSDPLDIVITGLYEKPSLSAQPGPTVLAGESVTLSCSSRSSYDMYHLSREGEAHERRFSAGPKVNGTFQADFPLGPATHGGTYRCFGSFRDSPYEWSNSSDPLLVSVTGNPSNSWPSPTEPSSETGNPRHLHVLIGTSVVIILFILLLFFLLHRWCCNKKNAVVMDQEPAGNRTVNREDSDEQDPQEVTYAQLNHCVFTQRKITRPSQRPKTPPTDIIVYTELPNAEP
T11 sequence (Q14953 22-304 limits assumed): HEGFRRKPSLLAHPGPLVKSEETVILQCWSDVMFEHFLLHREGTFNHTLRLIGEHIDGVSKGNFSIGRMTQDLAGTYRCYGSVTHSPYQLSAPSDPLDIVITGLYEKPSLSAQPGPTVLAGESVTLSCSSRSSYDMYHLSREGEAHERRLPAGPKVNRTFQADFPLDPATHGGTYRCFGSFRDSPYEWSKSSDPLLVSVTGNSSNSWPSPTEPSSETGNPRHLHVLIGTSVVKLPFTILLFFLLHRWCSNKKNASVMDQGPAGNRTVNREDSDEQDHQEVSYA
T9 sequence (Q14954 22-304 limits assumed): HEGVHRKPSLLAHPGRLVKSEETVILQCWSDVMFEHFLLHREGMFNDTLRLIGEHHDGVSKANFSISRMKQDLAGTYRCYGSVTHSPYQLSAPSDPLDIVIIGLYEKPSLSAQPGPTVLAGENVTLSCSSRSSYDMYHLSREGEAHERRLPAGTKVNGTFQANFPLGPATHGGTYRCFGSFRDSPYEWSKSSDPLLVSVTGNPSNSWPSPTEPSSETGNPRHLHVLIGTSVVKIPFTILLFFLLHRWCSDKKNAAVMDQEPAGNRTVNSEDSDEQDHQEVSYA
T12 sequence (Q14943 22-382 limits assumed): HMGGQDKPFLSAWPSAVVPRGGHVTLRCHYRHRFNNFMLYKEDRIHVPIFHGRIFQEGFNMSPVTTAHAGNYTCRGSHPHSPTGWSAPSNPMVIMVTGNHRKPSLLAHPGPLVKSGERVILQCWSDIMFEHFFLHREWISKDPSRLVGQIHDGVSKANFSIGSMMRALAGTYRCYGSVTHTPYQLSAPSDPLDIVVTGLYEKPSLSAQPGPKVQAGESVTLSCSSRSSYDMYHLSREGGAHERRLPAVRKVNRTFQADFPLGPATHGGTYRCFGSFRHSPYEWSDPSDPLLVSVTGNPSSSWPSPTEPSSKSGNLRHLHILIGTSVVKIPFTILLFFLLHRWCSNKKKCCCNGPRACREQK
T5 sequence (Q14952 22-304 limits assumed): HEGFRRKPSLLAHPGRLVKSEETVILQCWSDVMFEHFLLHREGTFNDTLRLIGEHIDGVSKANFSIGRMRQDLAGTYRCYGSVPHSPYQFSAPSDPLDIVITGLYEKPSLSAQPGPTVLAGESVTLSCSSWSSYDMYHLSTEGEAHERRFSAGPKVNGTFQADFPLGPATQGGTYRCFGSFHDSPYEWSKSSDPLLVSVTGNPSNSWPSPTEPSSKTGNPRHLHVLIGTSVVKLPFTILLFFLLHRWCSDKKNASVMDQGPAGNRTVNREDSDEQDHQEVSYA

B1: KIR3DL3 mAb 574.2.8F7.1.7.4 (antibody, IgG1, V domains shown)
VH: DVKLVESGGGLVKPGGSLKLSCAASGFTFSSYCMSWVRQTPEKRLEWVATISSGGNYIYYPDSVKGRFTISRDIAKNTLYLQMSSLKSEDTAMYYCTRGGYDERYFDYWGQGTILTVSS
VL: DIQMTQSPASLSASVGETVTITCRASENIYSYLAWYQQKQGKSPQLLVYNAKTLTEGMPSRFSGSGSGTQFSLRINSLQPEDFGSYYCQHHHGTPRTFGGGTKLEIK
notes: Mouse hybridoma antibody, IgG1; only variable domains given; also called AVS-3700
In general, IC50 refers to the concentration that gives 50% inhibition. A lower IC50 goes with greater potency. What is called Kd is the constant that tells how readily two partners part at equilibrium. Low values mean higher affinity, high ones lower affinity. What is called EC50 is the concentration at which the effect is half-maximal. A lower EC50 goes with a more potent agent. Take B1: the binding result is “no binding (tested: supernatant 1:5, 1:25, 1:250)” in the assay with KIR2DL5B [1]; “no binding (tested: supernatant 1:5, 1:25, 1:250)” in the assay with KIR2DL5A [2]; “no binding (tested: supernatant 1:5, 1:25, 1:250)” in the assay with KIR2DL4 [3]; “no binding (tested: supernatant 1:5, 1:25, 1:250)” in the assay with KIR2DL1 [4]; “no binding (tested: supernatant 1:5, 1:25, 1:250)” in the assay with KIR2DS3; “no binding (tested: supernatant 1:5, 1:25, 1:250)” in the assay with KIR2DS2. The binding result is recorded as “no binding (tested: supernatant 1:5, 1:25, 1:250)” with KIR3DL1 [5]; “no binding (tested: supernatant 1:5, 1:25, 1:250)” in the assay with KIR2DL3; “no binding (tested: supernatant 1:5, 1:25, 1:250)” in the assay with KIR2DS1; “no binding (tested: supernatant 1:5, 1:25, 1:250)” with KIR2DL2 [6]; “no binding (tested: supernatant 1:5, 1:25, 1:250)” with KIR2DS5; “no binding (tested: supernatant 1:5, 1:25, 1:250)” with KIR3DS1. The binding result with KIR3DL2 [7] is “no binding (tested: supernatant 1:5, 1:25, 1:250)”. For the same molecule, the IC50 with Human KIR3DL3 [8] is 27.5 µg/mL; with Human KIR3DL3 [11], over 10 µg/mL. In addition, in the assay with Human KIR3DL3 [9], the “Jurkat IL-2 Luciferase, Fold Activation” value was 1.2 fold. In the assay with Human KIR3DL3 [10], the Kd is 1 µg/mL. The same molecule registered an EC50 with Human KIR3DL3 [12] of 1 µg/mL.

B2: KIR3DL3 mAb 574.2.1G7.9.9 (antibody, IgG2b, V domains shown)
VH: ELKLEESGGGLVQPGGSMKLSCVASGFTFSNYWMNWVRQSPEKGLEWIAEIRLKSNNYATHYAESVKGRFTISRDDSKSSVYLQMNNLRAEDTGIFYCTPFYGSSFPYWGQGTLVTVSA
VL: DIQMTQTTSSLSASLGDRVTISCRASQDISNYLNWYQQKPDGTVKLLIYYTSILQLGVPPRFSGSGSGTDYSLTISNLEQEDIATYFCQQGNTLPFTFGAGTKVELK
notes: Mouse hybridoma antibody, IgG2b; only variable domains given; also called AVS-3701
On to B2, for which the binding result with KIR2DL5B [1] is “no binding (tested: supernatant 1:5, 1:25, 1:250)”; with KIR2DL5A [2], “no binding (tested: supernatant 1:5, 1:25, 1:250)”; with KIR2DL4 [3], “no binding (tested: supernatant 1:5, 1:25, 1:250)”; with KIR2DL1 [4], “no binding (tested: supernatant 1:5, 1:25, 1:250)”; in the assay with KIR2DS3, “no binding (tested: supernatant 1:5, 1:25, 1:250)”; with KIR2DS2 it was “no binding (tested: supernatant 1:5, 1:25, 1:250)”. For the same molecule, the binding result with KIR3DL1 [5] was “no binding (tested: supernatant 1:5, 1:25, 1:250)”; in the assay with KIR2DL3, “no binding (tested: supernatant 1:5, 1:25, 1:250)”; in the assay with KIR2DS1, “no binding (tested: supernatant 1:5, 1:25, 1:250)”; with KIR2DL2 [6], “no binding (tested: supernatant 1:5, 1:25, 1:250)”; with KIR2DS5, “no binding (tested: supernatant 1:5, 1:25, 1:250)”; with KIR3DS1, “no binding (tested: supernatant 1:5, 1:25, 1:250)”. In the assay with KIR3DL2 [7], the binding result was “no binding (tested: supernatant 1:5, 1:25, 1:250)”. Moreover, the IC50 with Human KIR3DL3 [13] worked out at 0.06 µg/mL; in the assay with Human KIR3DL3 [11], 0.61 µg/mL. For the same molecule, the “Jurkat IL-2 Luciferase Activation, EC50” value with Human KIR3DL3 [9] turned out to be 0.37 µg/mL. For the same molecule, the “Jurkat IL-2 Luciferase, Fold Activation” value with Human KIR3DL3 [9] came to 9.9 fold. Also, the Kd with Human KIR3DL3 [10] is 0.13 µg/mL. Moreover, a half-maximal effect with Human KIR3DL3 [12] (EC50) was put at 0.13 µg/mL.

B3: Human HHLA2-mIgG2a fusion protein (Fc fusion)
chain: IFPLAFFIYVPMNEQIVIGRLDEDIILPSSFERGSEVVIHWKYQDSYKVHSYYKGSDHLESQDPRYANRTSLFYNEIQNGNASLFFRRVSLLDEGIYTCYVGTAIQVITNKVVLKVGVFLTPVMKYEKRNTNSFLICSVLSVYPRPIITWKMDNTPISENNMEETGSLDSFSINSPLNITGSNSSYECTIENSLLKQTWTGRWTMKDGLHKMQSEHVSLSCQPVNDYFSPNQDFKVTWSRMKSGTFSVLAYYLSSSQNTIINESRFSWNKELINQSDFSMNLMDLNLSDSGEYLCNISSDEYTLLTIHTVHVEPSQETASHN
notes: also called HHLA2-Ig; HHLA2-mouse IgG2a; not shown: mutated at IgG2a L235E, E318A, K320A, K322A
Regarding B3, the binding result with EGFR, in the assay with KIR2DL5B [14], in the assay with KIR2DL5A [15], with KIR2DL4 [16], with KIR2DL1 [17] and with KIR3DL1 [18] was “no binding (tested: 20 ug/ml)” throughout. Moreover, the binding result in the assay with Human HHLA2, with KIR2DL2 [19] and with KIR3DL2 [20] was “no binding (tested: 20 ug/ml)” throughout.
